The values that follow are results of earlier work, collected in publication PMC3288358 (ACS Chemical Biology, 2011).

The target of one data set is hMc3R (Homo sapiens, UniProt P41968). Conditions: read-out: Mc3R EC50; cAMP assay; data adapted from ref Wilczynski et al. ([34]).
For the next data set, the system named is male Long-Evans rats. To be noted: requires higher minimal doses for activation; ref [8].

hMc3R, sequence (P41968 whole entry): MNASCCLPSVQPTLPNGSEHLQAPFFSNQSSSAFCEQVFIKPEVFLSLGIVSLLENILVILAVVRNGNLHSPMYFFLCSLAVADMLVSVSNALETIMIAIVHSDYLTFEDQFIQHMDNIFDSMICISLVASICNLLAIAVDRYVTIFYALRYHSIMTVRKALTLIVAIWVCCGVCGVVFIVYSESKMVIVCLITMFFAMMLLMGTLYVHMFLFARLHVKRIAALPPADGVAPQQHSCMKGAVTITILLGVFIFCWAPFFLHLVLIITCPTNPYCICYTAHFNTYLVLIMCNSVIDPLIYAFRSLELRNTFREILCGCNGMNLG

For orientation: EC50 means the midpoint of the concentration-response curve. Regarding “AgRP(87-132): Truncated AgRP lacking the four residue N-terminal segment, N-terminal acetylated”, in the data set with hMc3R, the 50% effective concentration (EC50) is 8.9 ± 0.2 nM.
SHU9119: the “Long-term feeding response compared with AgRP” value with male Long-Evans rats was “long-term response similar to AgRP”.
